Laboratory results taken from patent publication US20120128635.

How the values were obtained:
[1] = system: ZFN SBS#9802 (N2 pair) (synthetic construct); assay: cell_activity; settings: Cel-I assay in K562 day 3, as pair with SBS#11004; 34-47% in LP mouse liver in vivo (p174)
[2] = system: ZFN SBS#11004 (N2 pair) (synthetic construct); assay: cell_activity; settings: Cel-I assay in K562 day 3, as pair with SBS#9802; 34-47% in LP mouse liver in vivo (p174)

TGACACAGTACCTGGCACCATAGTTGTA (double strand) [hF9 intron 1 target of SBS#9802]
activity (% alleles cleaved) [1]: 30

GTACTAGGGGTATGGGGATAAACCAGAC (double strand) [hF9 intron 1 target of SBS#11004]
activity (% alleles cleaved) [2]: 30
